Source: patent US20240368302A1 (NANOMAB TECHNOLOGY, published 2024)

T1: human TROP2-Fc protein antigen (human, UniProt P09758 27-274)
T1 construct: extracellular domain; also called CRD + TY-1 + CPD; not shown: IgG Fc of the pFUSE-IgG plasmid
T1 sequence (looked up): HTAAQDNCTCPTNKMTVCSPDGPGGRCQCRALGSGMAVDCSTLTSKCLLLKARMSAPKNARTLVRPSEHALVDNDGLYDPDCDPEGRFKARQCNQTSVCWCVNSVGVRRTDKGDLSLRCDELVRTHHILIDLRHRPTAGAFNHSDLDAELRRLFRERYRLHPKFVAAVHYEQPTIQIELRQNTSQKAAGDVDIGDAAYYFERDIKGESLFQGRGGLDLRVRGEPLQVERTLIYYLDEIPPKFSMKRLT

T2: mouse TROP2-Fc antigen protein (mouse, UniProt Q8BGV3 25-270, limits assumed)
T2 construct: not shown: Fc
T2 sequence (looked up): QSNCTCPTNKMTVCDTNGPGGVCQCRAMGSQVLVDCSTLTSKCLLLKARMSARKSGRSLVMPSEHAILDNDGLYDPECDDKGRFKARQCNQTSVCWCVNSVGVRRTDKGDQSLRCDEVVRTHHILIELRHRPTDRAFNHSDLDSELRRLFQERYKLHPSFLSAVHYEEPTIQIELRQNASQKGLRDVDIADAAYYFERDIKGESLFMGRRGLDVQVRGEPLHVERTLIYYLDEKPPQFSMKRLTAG

T3: rhesus monkey TROP2-Fc antigen protein (rhesus monkey, UniProt A0A5F8AGB8 27-274)
T3 construct: not shown: Fc
T3 sequence: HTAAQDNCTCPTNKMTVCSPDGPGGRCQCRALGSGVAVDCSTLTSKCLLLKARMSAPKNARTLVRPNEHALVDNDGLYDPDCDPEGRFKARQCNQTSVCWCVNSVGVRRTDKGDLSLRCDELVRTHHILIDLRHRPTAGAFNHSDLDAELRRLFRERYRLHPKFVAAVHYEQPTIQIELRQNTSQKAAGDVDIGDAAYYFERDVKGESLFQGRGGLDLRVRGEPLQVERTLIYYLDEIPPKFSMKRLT

T4: Fc antigen protein of human TROP2 domains TY-1 + CPD (human, UniProt P09758 70-274, limits assumed)
T4 construct: domain: TY-1 + CPD; not shown: Fc
T4 sequence (looked up): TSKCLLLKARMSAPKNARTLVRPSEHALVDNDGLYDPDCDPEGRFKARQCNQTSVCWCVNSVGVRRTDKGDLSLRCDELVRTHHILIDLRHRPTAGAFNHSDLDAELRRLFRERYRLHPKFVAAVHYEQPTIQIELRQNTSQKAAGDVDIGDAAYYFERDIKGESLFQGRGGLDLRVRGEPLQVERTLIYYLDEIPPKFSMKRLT

T5: Fc antigen protein of human TROP2 domain CPD (human, UniProt P09758 146-274, limits assumed)
T5 construct: domain: CPD; not shown: Fc
T5 sequence (looked up): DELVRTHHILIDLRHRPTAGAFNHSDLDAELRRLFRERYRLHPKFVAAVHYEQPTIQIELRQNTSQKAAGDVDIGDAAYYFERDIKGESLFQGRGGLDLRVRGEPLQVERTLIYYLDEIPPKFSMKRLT


Tests used:
[1] = target: T1, human TROP2-Fc protein antigen; test: ELISA, coated human TROP2-Fc, Kd calculated from absorbance
[2] = target: T2, mouse TROP2-Fc antigen protein; test: ELISA, plate coated with mouse TROP2-Fc
[3] = target: T3, rhesus monkey TROP2-Fc antigen protein; test: ELISA, coated rhesus monkey TROP2-Fc, Kd calculated from absorbance
Procedure: (§1) The ELISA plates were coated with TROP2-Fc antigen proteins from human, mouse, and rhesus monkey overnight at 4° C. The plates were washed for 4 times with PBS-T the next day, added with 1% BSA, and blocked at room temperature for 2 hours. The plates were washed for 4 times with PBS-T, added with the anti-TROP2 single domain antibodies diluted in gradient, and standing at 37° C. for 1 hour. The plates were washed for 4 times with PBS-T, added with mouse anti-His-HRP antibody, and standing at 37° C. for 1 hour. The plates were washed for 4 times with PBS-T, added with TMB soluble substrate, and standing at room temperature for 10 minutes.

[4] = target: T1, human TROP2-Fc protein antigen; test: SPR (Biacore 8K), human TROP2-Fc on CM-5 chip, VHH in flow
Procedure: The fixed phase human TROP2-Fc antigen proteins were fixed on the surface of CM-5 sensing chip using carboxyl amino reaction. The anti-TROP2 single domain antibodies were diluted with HBS buffer to different concentrations, and the anti-TROP2 single domain antibodies were added at a flow rate of 30 μl/min, binding for 90 seconds, dissociating for 600 seconds, and the binding process between the anti-TROP2 single domain antibody and the antigen was observed. After rinsing with 10 mM glycine solution for chip regeneration, the next anti TROP2 single domain antibody assay was proceeded.

[5] = target: T1, human TROP2-Fc protein antigen; test: ELISA, coated Fc protein of human TROP2 CRD + TY-1 + CPD, Kd calculated from absorbance
Procedure: as §1, with “Fc” for “TROP2-Fc”, “of different human TROP2 domains” for “from human, mouse, and rhesus monkey”, “minutes. […] The anti-TROP2 single domain antibodies of the present invention bind to different TROP2 domains.” for “minutes.”

[6] = target: T4, Fc antigen protein of human TROP2 …; test: ELISA, coated Fc protein of human TROP2 TY-1 + CPD, Kd calculated from absorbance
Procedure: as §1, with “Fc” for “TROP2-Fc”, “of different human TROP2 domains” for “from human, mouse, and rhesus monkey”, “minutes. […] The anti-TROP2 single domain antibodies of the present invention bind to different TROP2 domains.” for “minutes.”

[7] = target: T5, Fc antigen protein of human TROP2 …; test: ELISA, coated Fc protein of human TROP2 CPD, Kd calculated from absorbance
Procedure: as §1, with “Fc” for “TROP2-Fc”, “of different human TROP2 domains” for “from human, mouse, and rhesus monkey”, “minutes. […] The anti-TROP2 single domain antibodies of the present invention bind to different TROP2 domains.” for “minutes.”

| Kd [1] [nM] | binding result [2] | Kd [3] [nM] | Kd [4] [nM] | koff [4] [s⁻¹] | kon [4] [M⁻¹ s⁻¹] | Kd [5] [nM] | Kd [6] [nM] | Kd [7] [nM] | Binder |
| --- | --- | --- | --- | --- | --- | --- | --- | --- | --- |
| 4.86 | no binding | 29.4 | 1.89 | 0.00304 | 1.61e+06 | 4.86 | – | – | MY1530-1-26 (VHH, Expressed in E. coli WK6 from vector pMECS, purified on a nickel column; also called MY1530-1-26 VHH; anti-TROP2 single domain antibody) VHH: QVQLQESGGGSVQAGGSLRLSCVVSGYTTTRYSMAWFRQAPGKEREGVAGIDTDVLTTYKPSVEGRFTISRDSAKRTLYLQMNSLKPEDTAMYYCATGTGNFLALDPVWYNTWGQGTQVTVSS |
| 1.39 | no binding | 1.78 | 0.27 | 0.00011 | 405000 | 1.39 | 0.53 | 0.53 | MY1530-5-17 (VHH, Expressed in E. coli WK6 from vector pMECS, purified on a nickel column; also called MY1530-5-17 VHH; anti-TROP2 single domain antibody) VHH: QVQLQESGGGSVQPGGSLRLSCVVSGYTVSSVCMAWFRQAPGMERELVAGFYHSGGTYYGDSVKGRFTASQDNAKNTLYLQMNSLKPEDTATYYCARARYPSSACGTSPSNYNIWGQGTQVTVSS |
| 1.28 | no binding | 1.73 | 0.2 | 8.99e-05 | 449000 | 1.28 | 0.53 | 0.53 | MY1530-5-54 (VHH, Expressed in E. coli WK6 from vector pMECS, purified on a nickel column; also called MY1530-5-54 VHH; anti-TROP2 single domain antibody) VHH: QVQLQESGGGSVQPGGSLRLSCVASGYTASSVCMAWFRQAPGKERELVAGYYHSGGTYYGDSVKGRFTASQDNAKNTLYLQMNSLKPEDTATYYCARARYPSSACGTSPSNYNIWGQGTQVTVSS |
| 1.29 | no binding | 1.67 | 0.73 | 0.000187 | 257000 | 1.29 | 0.53 | 1.02 | MY1530-4-22 (VHH, Expressed in E. coli WK6 from vector pMECS, purified on a nickel column; also called MY1530-4-22 VHH; anti-TROP2 single domain antibody) VHH: QVQLQESGGGSVQAGGSLKLSCVVSGYTVSSVCMAWFRQAPGMERELVAGFYHSGGTYYGDSVKGRFTASQDNAKNTLYLQMNSLKPEDTATYYCARARYPSSACGTSPSNYNIWGQGTQVTVSS |
| 1.2 | no binding | 1.38 | 4.89 | 0.000717 | 147000 | 1.2 | – | – | MY1530-4-28 (VHH, Expressed in E. coli WK6 from vector pMECS, purified on a nickel column; also called MY1530-4-28 VHH; anti-TROP2 single domain antibody) VHH: QVQLQESGGGSVQAGGSLRLSCAASGFSVSTTWMHWVRQAPGKGLEWVSRIAINDHTFYAESVKGRFTMSTDNAKNTVYLQMTSLKPEDTAVYYCSPYSDYRIRGQGTQVTVSS |
| 4.23 | no binding | 28.1 | 9.83 | 0.00443 | 451000 | 4.23 | – | – | MY1530-2-53 (VHH, Expressed in E. coli WK6 from vector pMECS, purified on a nickel column; also called MY1530-2-53 VHH; anti-TROP2 single domain antibody) VHH: QVQLQESGGGSVQAGGSLRLSCAVSGLTSSTTCMGWFRQAPGKEREGVAVIRSSGETTAADSVKGRFTISRDNAKNTLSLQMTSLKPEDTAMYYCAAAWPYSGCLLPLSSGDFTYWGQGTQVTVSS |
| 1.13 | no binding | 2.33 | 0.35 | 0.000179 | 509000 | 1.13 | – | – | MY1530-1-20 (VHH, Expressed in E. coli WK6 from vector pMECS, purified on a nickel column; also called MY1530-1-20 VHH; anti-TROP2 single domain antibody) VHH: QVQLQESGGGSVLAGGSLRLSCTVSGSFVSSRSMAWFRQTPGKEREGVAAISQYGDPKYAGSVKGRFTMSRDNAKNTLLLQMNSLKPEDTAIYYCAAGEAWELATLSRSDYIYWGQGTQVTVSS |
| 1.51 | no binding | 4.47 | 0.21 | 0.000227 | 1.09e+06 | 1.51 | 2.14 | – | MY1530-6-1 (VHH, Expressed in E. coli WK6 from vector pMECS, purified on a nickel column; also called MY1530-6-1 VHH; anti-TROP2 single domain antibody) VHH: QVQLQESGGGSVQAGGSLRLSCAASGFPYSSYSMGWFRQAPGKEREGVAAIYTGGGSTYYAGSVKGRFTISQEHATNTLYLQMNSLKPEDTAMYYCAANMVDNGVISGIQALGVRYYNYWGQGTQVTVSS |
